Target: LC8 (as used with syn-4mer) ( (S. cerevisiae or D. …, UniProt Q24117 1-89))
Assay: ITC

Sequence of LC8 (as used with syn-4mer) ( (Q24117 whole entry): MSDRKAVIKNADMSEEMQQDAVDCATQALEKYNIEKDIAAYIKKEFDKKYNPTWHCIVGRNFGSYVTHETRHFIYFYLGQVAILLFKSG

B1: synthetic four-site IDP (syn-4mer) (designed binder)
chain: GSYGSRKAIDAATQTEPKETRKAIDAATQTEPKETRKAIDAATQTEPKETRKAIDAATQTEGSYGS
Kd: ~40 nM
